Results from patent US20210340238A1, “TGFß1 INHIBITORS AND USE THEREOF” (Scholar Rock, Inc., priority 2018, published 2021).

Columns and labels:
[1] = system: TGFβ downstream tonic signaling; experiment: TGFβ downstream tonic signaling in non-diseased rat BAL; assay type: in vivo
[2] = rat, in vivo
Procedure: Animals receiving pan-TGFβ antibody were dosed once intravenously (at day 1) at a volume of 10 mL/kg and sacrificed at day 8 and necropsies performed. […] Animals receiving LY2109761 were dosed by oral gavage once daily for five or seven days. Animals were sacrificed and necropsies performed.

[3] = in vivo, cited from earlier work

Molecule | Effect on TGFβ downstream tonic signaling [1] | Bone findings [2] | Exposure: DN Cmax ([3]; human) | Exposure: Half-life ([3]; human) | Previously reported adverse events in human patients (CTCAE grade) [3]
c1ccc(-c2nn3c(c2-c2ccnc4cc(OCCN5CCOCC5)ccc24)CCC3)nc1 [LY2109761] | inhibit TGFβ downstream tonic signaling in non-diseased rat BAL | macroscopic abnormally shaped sternum and microscopic increased thickness of the hypertrophic zone in the endplate of the sternum and physis of the femur and tibia | – | – | –
GC1008: human analog of 1D11, pan-TGFβ antibody Fresolimumab (GC1008) | – | – | DN Cmax~(350 ng/mL)mg (ng/mL)mg | Half-life: 21.7 d | leukocytosis (grade 3), fatigue (grade 3), hypoxia (grade 3), asystole (grade 5), leukopenia (grade 1), recurrent, transient, tender erythematous, nodular skin lesions, suppurative dermatitis, and herpes zoster
